Target: the molecule itself
Experiment: crystal structure; Se-Met Spr0693_(59–324) T197M/I317M, hanging drop at 12 °C, sodium acetate pH 4.5; SAD, 3.0 Å; three molecules in the asymmetric unit

B1: Spr0693_(59–324) T197M/I317M, selenomethionine-labelled (domain or fragment, Streptococcus pneumoniae R6, UniProt Q8DQF9 59-324, looked up)
chain: SVLLSGTVTAKNEQYVYFDASKGDLDEILVSVGDKVSEGQALVKYSSSEAQAAYDSASRAVARADRHINELNQARNEAASAPAPQLPAPVGGEDATVQSPTPVAGNSVASIDAQLGDARDARADAAAQLSKAQSQLDAMTVLSTLEGTVVEVNSNVSKSPTGASQVMVHIVSNENLQVKGELSEYNLANLSVGQEVSFTSKVYPDKKWTGKLSYISDYPKNNGEAASPAAGNNTGSKYPYTIDVTGEVGDLKQGFSVNMEVKSKTK
modifications: selenomethionine instead of methionine
notes: Spr0693, Streptococcus pneumoniae R6, residues Ser59–Lys324 (without the TM and the membrane-proximal domain); Plasmid built on the full-length spr0693 plasmid (C-terminal tag) and purified on Ni-NTA; The structure was solved from a Se-Met crystal of the T197M/I317M double mutant; residues Pro142–Gly163 are not traced; also called truncated Spr0693 (Ser59–Lys324); TM&MP-truncated Spr0693; source: …
In the case of B1, the “stoichiometry N” value is reported as 6.

Source: PMC5768738, “Structure of a MacAB-like efflux pump from Streptococcus pneumoniae” (Nature Communications, 2018)
